# Test results: paper PMC11417362, “Template-independent synthesis and 3′-end labelling of 2′-modified oligonucleotides with terminal deoxynucleotidyl transferases” (Nucleic Acids Research, 2024)
# How the values were obtained:
# [1] = substrate: Nc1nc2c(ncn2[C@@H]2O[C@H](COP(=O)(O)OP(=O)(O)OP(=O)(O)O)[C@@H](O)[C@@H]2F)c(=O)[nH]1; assay: steady-state primer extension, denaturing PAGE, Michaelis-Menten fit; format: biochemical, Mus musculus; conditions: 100 nM ssDNA primer FAM-18G, 10 mM Mg(OAc)2, 1x TdT buffer (100 mM KCl, 30 mM Tris-acetate, 0.05% Triton X-100), pH 7.5, 37°C
# Source text: (§1) steady-state primer extension, denaturing PAGE, Michaelis-Menten fit on murine TdT
# [2] = substrate: CO[C@@H]1[C@H](O)[C@@H](COP(=O)(O)OP(=O)(O)OP(=O)(O)O)O[C@H]1n1cnc2c(=O)[nH]c(N)nc21; assay: as above; format: biochemical, Mus musculus; conditions: 100 nM ssDNA primer FAM-18G, 10 mM Mg(OAc)2, 1x TdT buffer (100 mM KCl, 30 mM Tris-acetate, 0.05% Triton X-100), pH 7.5, 37°C
# Source text: as §1
# [3] = substrate: Nc1ccn([C@@H]2O[C@H](COP(=O)(O)OP(=O)(O)OP(=O)(O)O)[C@@H](O)[C@@H]2F)c(=O)n1; assay: as above; format: biochemical, Mus musculus; conditions: 100 nM ssDNA primer FAM-18G, 10 mM Mg(OAc)2, 1x TdT buffer (100 mM KCl, 30 mM Tris-acetate, 0.05% Triton X-100), pH 7.5, 37°C
# Source text: as §1
# [4] = substrate: Nc1ncnc2c1ncn2[C@H]1C[C@H](O)[C@@H](COP(=O)(O)OP(=O)(O)OP(=O)(O)O)O1; assay: as above; format: biochemical, Mus musculus; conditions: 100 nM ssDNA primer FAM-18G, 10 mM Mg(OAc)2, 1x TdT buffer (100 mM KCl, 30 mM Tris-acetate, 0.05% Triton X-100), pH 7.5, 37°C
# Source text: as §1
# [5] = substrate: O=c1ccn([C@@H]2O[C@H](COP(=O)(O)OP(=O)(O)OP(=O)(O)O)[C@@H](O)[C@H]2F)c(=O)[nH]1; assay: as above; format: biochemical, Mus musculus; conditions: 100 nM ssDNA primer FAM-18G, 10 mM Mg(OAc)2, 1x TdT buffer (100 mM KCl, 30 mM Tris-acetate, 0.05% Triton X-100), pH 7.5, 37°C
# Source text: as §1
# [6] = substrate: Cc1cn([C@H]2C[C@H](O)[C@@H](COP(=O)(O)OP(=O)(O)OP(=O)(O)O)O2)c(=O)[nH]c1=O; assay: as above; format: biochemical, Mus musculus; conditions: 100 nM ssDNA primer FAM-18G, 10 mM Mg(OAc)2, 1x TdT buffer (100 mM KCl, 30 mM Tris-acetate, 0.05% Triton X-100), pH 7.5, 37°C
# Source text: as §1
# [7] = substrate: Nc1nc2c(ncn2[C@@H]2O[C@H](COP(=O)(O)OP(=O)(O)OP(=O)(O)O)[C@@H](O)[C@H]2F)c(=O)[nH]1; assay: as above; format: biochemical, Mus musculus; conditions: 100 nM ssDNA primer FAM-18G, 10 mM Mg(OAc)2, 1x TdT buffer (100 mM KCl, 30 mM Tris-acetate, 0.05% Triton X-100), pH 7.5, 37°C
# Source text: as §1
# [8] = substrate: Nc1ccn([C@H]2C[C@H](O)[C@@H](COP(=O)(O)OP(=O)(O)OP(=O)(O)O)O2)c(=O)n1; assay: as above; format: biochemical, Mus musculus; conditions: 100 nM ssDNA primer FAM-18G, 10 mM Mg(OAc)2, 1x TdT buffer (100 mM KCl, 30 mM Tris-acetate, 0.05% Triton X-100), pH 7.5, 37°C
# Source text: as §1
# [9] = substrate: O=c1ccn([C@@H]2O[C@H](COP(=O)(O)OP(=O)(O)OP(=O)(O)O)[C@@H](O)[C@@H]2F)c(=O)[nH]1; assay: purified protein, by the assay type
# Method: (§2) The steady-state kinetic experiments were performed as described previously with minor modifications ([61]). A 2× reaction solution was prepared by mixing 200 nM primer FAM-18G, 0–128 μM 2′-modified NTP and 20 mM Mg(OAc)2 in 2× TdT buffer. A 5 μl aliquot of pre-warmed 2× reaction solution was mixed with 5 μl of bovine TdT, MTdT-evo or murine TdT of varying concentration, and incubated at 37°C for a certain time. The reaction was then quenched by the addition of 10 μl of 2× TBE-urea sample buffer and incubation at 95°C for 10 min. The products were analysed with 20% denaturing PAGE gels containing 8 M urea. All gel bands were quantified using Quantity One analysis software (Bio-Rad). Km and kcat values were calculated by fitting the data to the Michaelis–Menten equation with GraphPad Prism 8 software. To quantify the activities of different TdTs for the incorporation of 2′-modified NTPs, steady-state kinetic experiments were carried out.
# [10] = substrate: Nc1ncnc2c1ncn2[C@@H]1O[C@H](COP(=O)(O)OP(=O)(O)OP(=O)(O)O)[C@@H](O)[C@H]1F; assay: purified protein, by the assay type
# Method: as §2
# [11] = substrate: Nc1ncnc2c1ncn2[C@@H]1O[C@H](COP(=O)(O)OP(=O)(O)OP(=O)(O)O)[C@@H](O)[C@@H]1F; assay: purified protein, by the assay type
# Method: as §2
# [12] = substrate: CO[C@@H]1[C@H](O)[C@@H](COP(=O)(O)OP(=O)(O)OP(=O)(O)O)O[C@H]1n1ccc(N)nc1=O; assay: purified protein, by the assay type
# Method: as §2
protein,measurement,setting,value
"murine TdT (Mus musculus) (protein, recombinant, plasmid pET28a-murine TdT, E. coli BL21(DE3)) MDPLQAVHLGPRKKRPRQLGTPVASTPYDIRFRDLVLFILEKKMGTTRRAFLMELARRKGFRVENELSDSVTHIVAENNSGSDVLEWLQLQNIKASSELELLDISWLIECMGAGKPVEMMGRHQLVVNRNSSPSPVPGSQNVPAPAVKKISQYACQRRTTLNNYNQLFTDALDILAENDELRENEGSCLAFMRASSVLKSLPFPITSMKDTEGIPCLGDKVKSIIEGIIEDGESSEAKAVLNDERYKSFKLFTSVFGVGLKTAEKWFRMGFRTLSKIQSDKSLRFTQMQKAGFLYYEDLVSCVNRPEAEAVSMLVKEAVVTFLPDALVTMTGGFRRGKMTGHDVDFLITSPEATEDEEQQLLHKVTDFWKQQGLLLYCDILESTFEKFKQPSRKVDALDHFQKCFLILKLDHGRVHSEKSGQQEGKGWKAIRVDLVMCPYDRRAFALLGWTGSRQFERDLRRYATHERKMMLDNHALYDRTKRVFLEAESEEEIFAHLGLDYIEPWERNA",Km,[1],2.75 ± 0.23 µM
same,kcat,[1],0.247 ± 0.007 s⁻¹
same,kcat/Km,[1],90000 M⁻¹ s⁻¹
same,Km,[2],1.97 ± 0.14 µM
same,kcat,[2],0.00217 ± 8.67e-05 s⁻¹
same,kcat/Km,[2],1100 M⁻¹ s⁻¹
same,Km,[3],1.66 ± 0.71 µM
same,kcat,[3],0.09 ± 0.00667 s⁻¹
same,kcat/Km,[3],54200 M⁻¹ s⁻¹
same,Km,[4],2.53 ± 0.30 µM
same,kcat,[4],0.0307 ± 0.00118 s⁻¹
same,kcat/Km,[4],12100 M⁻¹ s⁻¹
same,Km,[5],0.95 ± 0.31 µM
same,kcat,[5],0.00617 ± 0.000567 s⁻¹
same,kcat/Km,[5],6480 M⁻¹ s⁻¹
same,Km,[6],1.00 ± 0.33 µM
same,kcat,[6],0.0198 ± 0.00183 s⁻¹
same,kcat/Km,[6],19800 M⁻¹ s⁻¹
same,Km,[7],2.59 ± 0.36 µM
same,kcat,[7],0.0892 ± 0.0055 s⁻¹
same,kcat/Km,[7],34500 M⁻¹ s⁻¹
same,Km,[8],1.37 ± 0.18 µM
same,kcat,[8],0.058 ± 0.0055 s⁻¹
same,kcat/Km,[8],42300 M⁻¹ s⁻¹
same,Km,[9],2.36 ± 0.60 µM
same,kcat,[9],0.06 ± 0.00433 s⁻¹
same,kcat/Km,[9],25500 M⁻¹ s⁻¹
same,Km,[10],0.62 ± 0.48 µM
same,kcat,[10],0.023 ± 0.00108 s⁻¹
same,kcat/Km,[10],37200 M⁻¹ s⁻¹
same,Km,[11],3.98 ± 0.33 µM
same,kcat,[11],0.204 ± 0.00283 s⁻¹
same,kcat/Km,[11],51300 M⁻¹ s⁻¹
same,Km,[12],5.1 ± 1.53 µM
same,kcat,[12],0.00112 ± 8.67e-05 s⁻¹
same,kcat/Km,[12],219 M⁻¹ s⁻¹
